One protein from patent US20190322724 can be followed below.

For data set [1], the target named is WT TIMP-2-His6 tyrosine phosphorylated by c-Src.
Data set [2] addresses wild type human TIMP-2 with C-terminal His6 tag (WT TIMP-2-His6).

TIMP-2 Y90E-His6, sequence (chain, as listed by the source Y90E): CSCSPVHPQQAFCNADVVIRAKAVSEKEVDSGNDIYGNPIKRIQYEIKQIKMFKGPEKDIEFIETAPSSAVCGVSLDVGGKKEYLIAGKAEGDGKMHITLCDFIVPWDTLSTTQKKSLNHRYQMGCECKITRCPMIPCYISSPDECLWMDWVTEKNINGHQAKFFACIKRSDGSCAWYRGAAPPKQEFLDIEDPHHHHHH
TIMP-2 Y90F-His6, sequence (chain, as listed by the source Y90F): as the sequence (chain, as listed by the source Y90E) above, with E64F counted along it

B1: active 62 kDa MMP-2 (protein)
chain: YNFFPRKPKWDKNQITYRIIGYTPDLDPETVDDAFARAFQVWSDVTPLRFSRIHDGEADIMINFGRWEHGDGYPFDGKDGLLAHAFAPGTGVGGDSHFDDDELWTLGEGQVVRVKYGNADGEYCKFPFLFNGKEYNSCTDTGRSDGFLWCSTTYNFEKDGKYGFCPHEALFTMGGNAEGQPCKFPFRFQGTSYDSCTTEGRTDGYRWCGTTEDYDRDKKYGFCPETAMSTVGGNSEGAPCVFPFTFLGNKYESCTSAGRSDGKMWCATTANYDDDRKWGFCPDQGYSLFLVAAHEFGHAMGLEHSQDPGALMAPIYTYTKNFRLSQDDIKGIQELYGASPDIDLGTGPTPTLGPVTPEICKQDIVFDGIAQIRGEIFFFKDRFIWRTVTPRDKPMGPLLVATFWPELPEKIDAVYEAPQEEKAVFFAGNEYWIYSASTLERGYPKPLTSLGLPPDVQRVDAAFNWSKNKKTYIFAGDKFWRYNEVKKKMDPGFPKLIADAWNAIPDNLDAVVDLQGGGHSYFFKGAYYLKLENQSLKSVKFGSIKSDWLGC
For B1, the “MMP-2 enzymatic activity on a fluorogenic peptide substrate” value with TIMP-2 Y90E-His6 is listed as “phosphomimetic TIMP-2 Y90E inhibitory function correlates with significantly less MMP-2 enzymatic activity”; in the data set with TIMP-2 Y90F-His6, “non-phosphorylatable Y90F displayed a slightly less MMP-2 inhibitory activity compared the WT TIMP-2”; in data set [1], “phosphoTIMP-2 (pWT) is significantly (˜25 percent) more inhibitory than the non-phosphorylated WT TIMP-2 toward MMP-2”; in data set [2], “as expected WT TIMP-2 acts as an MMP-2 inhibitor”.
